Test results taken from the supplement of paper PMC10126150.
± gives the standard deviation of the averaged measurements.

system: ATP; experiment: switch fluorescence ratio, 500 uM ATP over buffer (Cy3 cluster intensity, sum of 5 cycles each) (fold (ratio)); higher = stronger signal-on switching upon ATP binding; sequences stand for … in TCGTCGGCAGCGTCAGATGTGTATAAGAGACAGTTTTTTTTTTTTTTTTTTTTTTTTT…TC; settings: aptamer strand: ATP DNA aptamer (quencher-CACCTGGGGGAGTATTGCGGAGGAAGG + anchor), 100 nM annealed; ATP concentration: 500 uM
Outline: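 The quencher-labelled ATP aptamer, at 100 nM, was annealed to Cy3-labelled switching-strand clusters on a modified Illumina MiSeq flow-cell. The clusters were imaged in selection buffer, then after 15 min with 500 uM ATP at 22 °C, and this buffer/ATP cycle ran five times with NaOH stripping and re-annealing between runs. Per-cluster fluorescence ratios, summed target-cycle over summed buffer-cycle Cy3 intensity, were averaged per switch-domain sequence. Clusters outside 100-1000 RFU were excluded.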
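Further: ATP exposure 15 min at 22 °C before imaging.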

| Sequence | switch fluorescence ratio |
| --- | --- |
| ATGCATGGGC | 1.03 ± 0.022 |
| ATGCATGTGC | 0.983 ± 0.01 |
| ATGCATTAAT | 0.997 ± 0.015 |
| ATGCATTGCG | 0.99777 ± 0.00081 |
| ATGCATTGGA | 1.01 ± 0.029 |
| ATGCCGGAG | 0.986 ± 0.028 |
| ATGCGAAGGT | 1.04 ± 0.037 |
| ATGCGAATAT | 0.989 ± 0.015 |
| ATGCGAGTGG | 1.01 ± 0.047 |
| ATGCGATGGC | 1.02 ± 0.0072 |
| ATGCGCCGGT | 1.011 ± 0.0027 |
| ATGCGGCATT | 1.03 ± 0.044 |
| ATGCGGGCCC | 0.99 ± 0.012 |
| ATGCGGGGGC | 1.045 ± 0.0046 |
| ATGCGGGGGT | 0.993 ± 0.037 |
| ATGCGGGTGC | 1.04 ± 0.039 |
| ATGCGGGTTT | 1.02 ± 0.018 |
| ATGCGTCGCG | 0.986 ± 0.025 |
| ATGCGTGGAA | 1.02 ± 0.027 |
| ATGCTAACGT | 0.9818 ± 0.0032 |
| ATGCTATGCG | 1.008 ± 0.01 |
| ATGCTATGGT | 0.987 ± 0.013 |
| ATGCTGGGCG | 1.02 ± 0.041 |
| ATGCTGTTGG | 1 ± 0.026 |
| ATGCTTCTTT | 0.9854 ± 0.0053 |

| Sequence | switch fluorescence ratio |
| --- | --- |
| ATGGAAAGGG | 0.989 ± 0.041 |
| ATGGAACCGT | 1.02 ± 0.027 |
| ATGGAACCTT | 1.28 ± 0.34 |
| ATGGAAGGGA | 1.15 ± 0.21 |
| ATGGAAGTGC | 0.9827 ± 0.0068 |
| ATGGAAGTGG | 0.9908 ± 0.007 |
| ATGGAATGCG | 1.028 ± 0.0089 |
| ATGGACACGC | 1.03 ± 0.042 |
| ATGGACTATG | 1.02 ± 0.043 |
| ATGGAGAAAG | 1.02 ± 0.059 |
| ATGGAGGCG | 1.03 ± 0.013 |
| ATGGAGGGTA | 0.99 ± 0.016 |
| ATGGAGTGTG | 0.989 ± 0.02 |
| ATGGAGTTG | 0.994 ± 0.024 |
| ATGGATACGG | 1.02 ± 0.011 |
| ATGGATAGCG | 0.968 ± 0.074 |
| ATGGATCTCA | 1 ± 0.0063 |
| ATGGATGACA | 0.951 ± 0.052 |
| ATGGATTCTG | 1.07 ± 0.091 |
| ATGGATTTGT | 1.01 ± 0.021 |
| ATGGCAACCG | 1.02 ± 0.012 |
| ATGGCAAGGT | 1.02 ± 0.065 |
| ATGGCAGACT | 1.02 ± 0.052 |
| ATGGCAGCTG | 0.9949 ± 0.0095 |
| ATGGCCGGGT | 1.01 ± 0.013 |

| Sequence | switch fluorescence ratio |
| --- | --- |
| ATGGCCGGTT | 1.04 ± 0.013 |
| ATGGCGACGA | 1.027 ± 0.0095 |
| ATGGCGAGGG | 0.989 ± 0.017 |
| ATGGCGATCA | 0.999 ± 0.0078 |
| ATGGCTTGGT | 0.99 ± 0.025 |
| ATGGGAAGGC | 0.983 ± 0.026 |
| ATGGGACAGT | 0.988 ± 0.05 |
| ATGGGACGGC | 0.998 ± 0.032 |
| ATGGGAGGGC | 0.9698 ± 0.0059 |
| ATGGGAGGTG | 1.01 ± 0.039 |
| ATGGGATGCG | 0.981 ± 0.016 |
| ATGGGCAGCT | 1.02 ± 0.011 |
| ATGGGCCGGG | 0.9955 ± 0.0074 |
| ATGGGCTAGA | 0.9731 ± 0.0052 |
| ATGGGCTGGG | 0.997 ± 0.035 |
| ATGGGCTTAC | 1.2301 ± 0.00072 |
| ATGGGGAATA | 1.03 ± 0.0059 |
| ATGGGGCATA | 1.01 ± 0.045 |
| ATGGGGGAA | 0.997 ± 0.042 |
| ATGGGGGCAC | 0.971 ± 0.032 |
| ATGGGGGGCA | 0.971 ± 0.025 |
| ATGGGGGGT | 0.992 ± 0.028 |
| ATGGGGGGTT | 1.01 ± 0.043 |
| ATGGGGGTAG | 1.01 ± 0.048 |
| ATGGGGTGGC | 0.9977 ± 0.0017 |

| Sequence | switch fluorescence ratio |
| --- | --- |
| ATGGGGTGGG | 0.985 ± 0.026 |
| ATGGGGTGTG | 1 ± 0.018 |
| ATGGGTACGG | 1.02 ± 0.029 |
| ATGGGTGAGT | 1.002 ± 0.0086 |
| ATGGGTGCCT | 1.03 ± 0.023 |
| ATGGGTGTGC | 1 ± 0.034 |
| ATGGGTTAGC | 0.998 ± 0.011 |
| ATGGGTTCAG | 0.969 ± 0.0045 |
| ATGGGTTTAG | 0.994 ± 0.016 |
| ATGGTAAGT | 0.9815 ± 0.0057 |
| ATGGTAGTAA | 1.01 ± 0.024 |
| ATGGTAGTGG | 0.995 ± 0.026 |
| ATGGTATATT | 1 ± 0.033 |
| ATGGTCAGGT | 1.01 ± 0.019 |
| ATGGTCGGGA | 0.986 ± 0.026 |
| ATGGTCGTCG | 0.9939 ± 0.0035 |
| ATGGTCGTCT | 0.971 ± 0.027 |
| ATGGTCTGCC | 0.974 ± 0.02 |
| ATGGTCTGCG | 1 ± 0.018 |
| ATGGTGAAGG | 1.01 ± 0.066 |
| ATGGTGGTGG | 1.011 ± 0.0062 |
| ATGGTGTAGG | 1.01 ± 0.012 |
| ATGGTGTATC | 0.981 ± 0.026 |
| ATGGTTAAAT | 0.976 ± 0.033 |
| ATGGTTACGG | 1 ± 0.035 |

| Sequence | switch fluorescence ratio |
| --- | --- |
| ATGGTTGTCA | 1.03 ± 0.015 |
| ATGGTTTATA | 0.977 ± 0.045 |
| ATGGTTTGTA | 0.9744 ± 0.0088 |
| ATGTAAACGC | 1.03 ± 0.038 |
| ATGTAACCGT | 1.01 ± 0.012 |
| ATGTAATAGC | 0.989 ± 0.022 |
| ATGTAATAGG | 0.995 ± 0.046 |
| ATGTAATGAT | 1.02 ± 0.018 |
| ATGTACGAGA | 1.06 ± 0.019 |
| ATGTACGTAG | 1.03 ± 0.025 |
| ATGTACGTTT | 0.9983 ± 0.0007 |
| ATGTAGGGAG | 0.998 ± 0.017 |
| ATGTAGGGG | 1 ± 0.022 |
| ATGTAGTACG | 1 ± 0.02 |
| ATGTAGTGCG | 0.99 ± 0.021 |
| ATGTAGTTGG | 1 ± 0.016 |
| ATGTAGTTGT | 0.979 ± 0.041 |
| ATGTATCACT | 0.984 ± 0.015 |
| ATGTATCATG | 1 ± 0.033 |
| ATGTATCGGC | 1.01 ± 0.06 |
| ATGTATCGGG | 0.975 ± 0.036 |
| ATGTATTAAG | 0.98 ± 0.015 |
| ATGTATTCAG | 0.96694 ± 0.00025 |
| ATGTATTCTT | 0.987 ± 0.052 |
| ATGTCAGGGA | 0.994 ± 0.019 |

| Sequence | switch fluorescence ratio |
| --- | --- |
| ATGTCCTATG | 1.003 ± 0.0066 |
| ATGTCGACTA | 1.02 ± 0.021 |
| ATGTCGTGTC | 1 ± 0.013 |
| ATGTCTGGGA | 1 ± 0.037 |
| ATGTCTGTAA | 1 ± 0.013 |
| ATGTGAAAGA | 0.982 ± 0.011 |
| ATGTGAGAGG | 0.991 ± 0.022 |
| ATGTGAGTTA | 0.951 ± 0.039 |
| ATGTGATATG | 0.994 ± 0.042 |
| ATGTGATGCT | 1.012 ± 0.0044 |
| ATGTGCAATA | 1.94 ± 0.082 |
| ATGTGCGATT | 1 ± 0.037 |
| ATGTGCGGGC | 1.025 ± 0.0063 |
| ATGTGCTCTA | 0.9692 ± 0.0047 |
| ATGTGCTCTC | 0.9817 ± 0.0082 |
| ATGTGCTGCC | 0.983 ± 0.019 |
| ATGTGCTGTT | 0.99802 ± 8.7e-05 |
| ATGTGGAAGT | 0.97 ± 0.043 |
| ATGTGGACCT | 1.26 ± 0.065 |
| ATGTGGATTC | 1.02 ± 0.036 |
| ATGTGGATTT | 0.988 ± 0.023 |
| ATGTGGCTCT | 0.9984 ± 0.0069 |
| ATGTGGGGGT | 0.994 ± 0.029 |
| ATGTGGTAAT | 0.984 ± 0.024 |
| ATGTGGTACT | 0.979 ± 0.027 |

| Sequence | switch fluorescence ratio |
| --- | --- |
| ATGTGGTCAT | 1.008 ± 0.0065 |
| ATGTGGTTAC | 1.01 ± 0.048 |
| ATGTGTACCC | 1.04 ± 0.016 |
| ATGTGTTACG | 1.05 ± 0.012 |
| ATGTGTTCGG | 0.98 ± 0.0064 |
| ATGTGTTGTG | 0.98 ± 0.021 |
| ATGTGTTTGC | 0.99 ± 0.053 |
| ATGTTAAGAG | 0.9766 ± 0.0089 |
| ATGTTAAGTC | 0.97 ± 0.049 |
| ATGTTAGGGG | 0.981 ± 0.041 |
| ATGTTAGGGT | 0.988 ± 0.033 |
| ATGTTAGTCG | 1.01 ± 0.014 |
| ATGTTATACT | 1.02 ± 0.028 |
| ATGTTATAGT | 0.98 ± 0.04 |
| ATGTTCGGCG | 1.01 ± 0.036 |
| ATGTTCGTAG | 0.989 ± 0.015 |
| ATGTTTATCG | 0.97 ± 0.016 |
| ATGTTTATTT | 0.998 ± 0.041 |
| ATGTTTCAGT | 0.9982 ± 0.0021 |
| ATGTTTCGGT | 0.9918 ± 0.0073 |
| ATGTTTTCTG | 0.968 ± 0.04 |
| ATGTTTTGAG | 0.983 ± 0.043 |
| ATGTTTTGTA | 1 ± 0.0053 |
| ATGTTTTTTC | 0.977 ± 0.037 |
| ATTAAAACTT | 1.05 ± 0.026 |

| Sequence | switch fluorescence ratio |
| --- | --- |
| ATTAAAAGGT | 1 ± 0.026 |
| ATTAAAGTTA | 1.01 ± 0.013 |
| ATTAAATGGC | 1.02 ± 0.012 |
| ATTAAATTTC | 0.987 ± 0.014 |
| ATTAAGAGGT | 1.034 ± 0.0075 |
| ATTAAGATGT | 1.002 ± 0.0049 |
| ATTAAGCTGT | 1.009 ± 0.01 |
| ATTAAGTCGC | 1.01 ± 0.022 |
| ATTAATAGCA | 0.9745 ± 0.0089 |
| ATTAATCGCT | 0.9931 ± 0.0042 |
| ATTAATCGGC | 0.9735 ± 0.0033 |
| ATTAATCTT | 1.011 ± 0.0016 |
| ATTAATTAAT | 1 ± 0.034 |
| ATTAATTGGG | 1.01 ± 0.036 |
| ATTACAATAG | 1.095 ± 0.0077 |
| ATTACGCCA | 1.17 ± 0.11 |
| ATTACGGCAT | 1.18 ± 0.047 |
| ATTACGGTCA | 1.02 ± 0.038 |
| ATTAGAAGAC | 1 ± 0.027 |
| ATTAGAATTA | 0.982 ± 0.062 |
| ATTAGATGTT | 0.9635 ± 0.0029 |
| ATTAGCAATG | 1.354 ± 0.006 |
| ATTAGCGTCA | 0.991 ± 0.018 |
| ATTAGCTCGC | 0.97 ± 0.023 |
| ATTAGCTTCC | 3 ± 0.33 |
